Sequences and labels used below:
B1: glmS ribozyme (parent)
chain: AUAAAAGCGCCAGAACUACAGAAAUGUAGUUGACGAGGAGGAGGUUUAUCGAAUUUUCGGCGGAUGCCUCCAAA

Holding throughout (settings): with glucosamine-6-phosphate
Variants of B1 are the subject of data set [1]. The experiment in a line: self-cleavage kobs at 640 uM GlcN6P; higher = faster cleavage; RNA array. The method in brief: (§1)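 Glucosamine-6-phosphate (40 μM to 10 mM) in HEPES/KCl/Mg(OAc)2 buffer was flowed over sequenced MiSeq chips, and tiles were imaged over ~14 h. Barcoded ribozyme variants there had been transcribed in situ by E. coli RNA polymerase and were tracked through a hybridised Cy3 probe at 37 °C. One- or two-exponential decay fits to per-tile medians, normalised to baseline and to non-cleaving reference variants, gave kobs. kcat and KM came from weighted Michaelis–Menten fits across concentrations.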

In data set [2] the parent is B1. The data set can be described thus: self-cleavage kobs at 2500 uM GlcN6P; higher = faster cleavage; RNA array. Summed up: as §1
In data set [3] the parent is B1. The data set can be described thus: self-cleavage kobs at 10000 uM GlcN6P; higher = faster cleavage; RNA array. Summed up: as §1

± gives the standard error. Variants at the floor of the assay were thinned out.

Take G35C G38A: the “self-cleavage kobs at 640 uM GlcN6P” value with glucosamine-6-phosphate [1] was below 1e-05 s⁻¹. Besides, in the data set with glucosamine-6-phosphate [2], the “self-cleavage kobs at 2500 uM GlcN6P” value is below 1e-05 s⁻¹.

Turning to G9U A15C, in the data set with glucosamine-6-phosphate [1], the “self-cleavage kobs at 640 uM GlcN6P” value was below 1e-05 s⁻¹. For the same variant, the “self-cleavage kobs at 10000 uM GlcN6P” value with glucosamine-6-phosphate [3] is below 1e-05 s⁻¹.

Turning to C34A G43A G51C U56G, in the data set with glucosamine-6-phosphate [1], the “self-cleavage kobs at 640 uM GlcN6P” value is below 1e-05 s⁻¹.

Consider G44U G62U C68A, for which the “self-cleavage kobs at 640 uM GlcN6P” value in the data set with glucosamine-6-phosphate [1] is below 1e-05 s⁻¹. Besides, the “self-cleavage kobs at 2500 uM GlcN6P” value in the data set with glucosamine-6-phosphate [2] is below 1e-05 s⁻¹.

G9U U31A: the “self-cleavage kobs at 640 uM GlcN6P” value with glucosamine-6-phosphate [1] is below 1e-05 s⁻¹. Further, the “self-cleavage kobs at 2500 uM GlcN6P” value in the data set with glucosamine-6-phosphate [2] is below 1e-05 s⁻¹. Moreover, the “self-cleavage kobs at 10000 uM GlcN6P” value with glucosamine-6-phosphate [3] was below 1e-05 s⁻¹.

G32A G43A G63A A64G: the “self-cleavage kobs at 640 uM GlcN6P” value with glucosamine-6-phosphate [1] is below 1e-05 s⁻¹. For the same variant, the “self-cleavage kobs at 2500 uM GlcN6P” value with glucosamine-6-phosphate [2] was below 1e-05 s⁻¹.

For U46G A53U G63C C67G, the “self-cleavage kobs at 640 uM GlcN6P” value in the data set with glucosamine-6-phosphate [1] is below 1e-05 s⁻¹.

As for G13A C50U G62A, the “self-cleavage kobs at 640 uM GlcN6P” value with glucosamine-6-phosphate [1] is below 1e-05 s⁻¹.

Consider A42U U46G A48C, for which the “self-cleavage kobs at 640 uM GlcN6P” value with glucosamine-6-phosphate [1] is below 1e-05 s⁻¹.

For the variant G41U G44U U45C, in the data set with glucosamine-6-phosphate [1], the “self-cleavage kobs at 640 uM GlcN6P” value was below 1e-05 s⁻¹. Moreover, the “self-cleavage kobs at 2500 uM GlcN6P” value in the data set with glucosamine-6-phosphate [2] is below 1e-05 s⁻¹.

Turning to G7U U30C C61A, the “self-cleavage kobs at 640 uM GlcN6P” value with glucosamine-6-phosphate [1] is below 1e-05 s⁻¹.

With A14G G40U G41C, the “self-cleavage kobs at 640 uM GlcN6P” value with glucosamine-6-phosphate [1] came to 7.7e-05 ± 1.5e-05 s⁻¹. Further, the “self-cleavage kobs at 2500 uM GlcN6P” value with glucosamine-6-phosphate [2] came out at 0.00015 ± 3.4e-05 s⁻¹.

On to G7U U45A A53G U56G, for which the “self-cleavage kobs at 640 uM GlcN6P” value with glucosamine-6-phosphate [1] is below 1e-05 s⁻¹.

G7U A15C A39C: the “self-cleavage kobs at 640 uM GlcN6P” value in the data set with glucosamine-6-phosphate [1] was below 1e-05 s⁻¹.

For the variant C10U C11G A14G C16A G41A G51U, in the data set with glucosamine-6-phosphate [1], the “self-cleavage kobs at 640 uM GlcN6P” value was below 1e-05 s⁻¹.

As for C11A C16A C50G, in the data set with glucosamine-6-phosphate [1], the “self-cleavage kobs at 640 uM GlcN6P” value was found to be 0.000146 ± 4.5e-05 s⁻¹. The “self-cleavage kobs at 2500 uM GlcN6P” value in the data set with glucosamine-6-phosphate [2] worked out at 8e-05 ± 2.7e-05 s⁻¹.

C8U U47G: the “self-cleavage kobs at 640 uM GlcN6P” value with glucosamine-6-phosphate [1] is below 1e-05 s⁻¹. The “self-cleavage kobs at 10000 uM GlcN6P” value with glucosamine-6-phosphate [3] is below 1e-05 s⁻¹.

For the variant G40U U49A, the “self-cleavage kobs at 640 uM GlcN6P” value in the data set with glucosamine-6-phosphate [1] was below 1e-05 s⁻¹. For the same variant, in the data set with glucosamine-6-phosphate [2], the “self-cleavage kobs at 2500 uM GlcN6P” value was below 1e-05 s⁻¹. Also, the “self-cleavage kobs at 10000 uM GlcN6P” value in the data set with glucosamine-6-phosphate [3] is below 1e-05 s⁻¹.

Take G62U U69G: the “self-cleavage kobs at 640 uM GlcN6P” value with glucosamine-6-phosphate [1] was 3.47e-05 ± 1.3e-05 s⁻¹. Moreover, the “self-cleavage kobs at 2500 uM GlcN6P” value with glucosamine-6-phosphate [2] came to 0.000214 ± 8.3e-05 s⁻¹.

For the variant G29A U49A A53G C68A, in the data set with glucosamine-6-phosphate [1], the “self-cleavage kobs at 640 uM GlcN6P” value was found to be 7.05e-05 ± 2.9e-05 s⁻¹.

Turning to A12U G32C G35C A42U, the “self-cleavage kobs at 640 uM GlcN6P” value in the data set with glucosamine-6-phosphate [1] is below 1e-05 s⁻¹.

As for G44A C50U C67U, the “self-cleavage kobs at 640 uM GlcN6P” value with glucosamine-6-phosphate [1] was below 1e-05 s⁻¹.

For A14C G32A G40U G59C, in the data set with glucosamine-6-phosphate [1], the “self-cleavage kobs at 640 uM GlcN6P” value was below 1e-05 s⁻¹.

G13C A48G U49C: the “self-cleavage kobs at 640 uM GlcN6P” value in the data set with glucosamine-6-phosphate [1] is below 1e-05 s⁻¹.

Take G38U G43C A53U: the “self-cleavage kobs at 640 uM GlcN6P” value with glucosamine-6-phosphate [1] was below 1e-05 s⁻¹. Moreover, the “self-cleavage kobs at 2500 uM GlcN6P” value in the data set with glucosamine-6-phosphate [2] was below 1e-05 s⁻¹.

A15C U45G U56C C58A C67G C68A: the “self-cleavage kobs at 640 uM GlcN6P” value with glucosamine-6-phosphate [1] is 8.64e-05 ± 2.9e-05 s⁻¹.

For G41A G51C A64C, the “self-cleavage kobs at 640 uM GlcN6P” value with glucosamine-6-phosphate [1] is below 1e-05 s⁻¹.

As to G41A U65C, the “self-cleavage kobs at 640 uM GlcN6P” value in the data set with glucosamine-6-phosphate [1] was below 1e-05 s⁻¹.

For G29C G44C C67G, the “self-cleavage kobs at 640 uM GlcN6P” value in the data set with glucosamine-6-phosphate [1] was 0.000127 ± 3.8e-05 s⁻¹. For the same variant, the “self-cleavage kobs at 2500 uM GlcN6P” value in the data set with glucosamine-6-phosphate [2] is 0.000256 ± 0.00011 s⁻¹.

With G13C U57C C58A, the “self-cleavage kobs at 640 uM GlcN6P” value in the data set with glucosamine-6-phosphate [1] was below 1e-05 s⁻¹.

Consider A14G G32A G60A C61A C67A C70U, for which the “self-cleavage kobs at 640 uM GlcN6P” value in the data set with glucosamine-6-phosphate [1] was 0.000302 ± 0.00012 s⁻¹.

As to G7U G13U A15U C50A G51A G60U C67A C71A, the “self-cleavage kobs at 640 uM GlcN6P” value with glucosamine-6-phosphate [1] worked out at 0.000375 ± 0.00012 s⁻¹.

On to A33C U47G, for which the “self-cleavage kobs at 640 uM GlcN6P” value in the data set with glucosamine-6-phosphate [1] was 8.08e-05 ± 3e-05 s⁻¹. In the data set with glucosamine-6-phosphate [3], the “self-cleavage kobs at 10000 uM GlcN6P” value amounted to 6.4e-05 ± 1.3e-05 s⁻¹.

Regarding C34G A53C A64C, in the data set with glucosamine-6-phosphate [1], the “self-cleavage kobs at 640 uM GlcN6P” value is below 1e-05 s⁻¹.

For the variant G63A G66U C67U, the “self-cleavage kobs at 640 uM GlcN6P” value with glucosamine-6-phosphate [1] was below 1e-05 s⁻¹. Also, the “self-cleavage kobs at 2500 uM GlcN6P” value with glucosamine-6-phosphate [2] is below 1e-05 s⁻¹.

The values are drawn from the supplement of paper PMC7125110.
